Measured values taken from the supplement of paper PMC10724198.
± gives the standard deviation of the averaged measurements.

These sequences were tested on Saccharomyces cerevisiae (assay: protein stability index of tFT-peptide fusion (C-terminal peptide) (PSI (0-1 scale)); higher = more stable (slower turnover)). Details: genetic background: wild type; temperature: 30 C.
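Note: PSI is a weighted mean of sequencing reads over stability bins, variants kept only with over 10 reads, mCherry proximal and sfGFP distal, peptide attached via GGGS linker.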

Sequence | protein stability index
PFPLPPLCPPAA | 0.722 ± 0.064
PFPPLRSLPRPP | 0.737 ± 0.099
PFPPPPPPPMPT | 0.691 ± 0.05
PFPPPSPPPPSS | 0.6785 ± 0.003
PFPPRLPSPATP | 0.6914 ± 0.0037
PFPPSLPSLPLL | 0.698 ± 0.017
PFPPYSLPLPSP | 0.759 ± 0.016
PFPSPSRHSLFP | 0.723 ± 0.084
PFRFLFGISLFF | 0.559 ± 0.015
PFRLSPPLPPAP | 0.743 ± 0.084
PFRSPYQRPLHY | 0.689 ± 0.039
PFSIPPPPPRYP | 0.766 ± 0.0092
PFSPDVSSVVFL | 0.667 ± 0.032
PFSPPLTPTFFP | 0.7052 ± 0.0057
PFSPPPGPPPPP | 0.6806 ± 0.0034
PFTSPAGSFPPP | 0.762 ± 0.068
PFWTPASPPSFY | 0.748 ± 0.014
PGAFDLPHSQAV | 0.552 ± 0.059
PGCSCPSTRRTT | 0.655 ± 0.077
PGGCQDPWAALC | 0.714 ± 0.077
PGHPGSCPRRNG | 0.645 ± 0.046
PGPDMSSVSSDY | 0.6 ± 0.11
PGPLISAVPLPF | 0.733 ± 0.064

Sequence | protein stability index
PGPNPASCIPTW | 0.6835 ± 0.0021
PGPWLGLTPCRT | 0.813 ± 0.14
PGRAARLLPRPL | 0.712 ± 0.048
PGRLTTERLSFQ | 0.7 ± 0.043
PGRMEKKALKRP | 0.677 ± 0.014
PGRQSPPAPLYR | 0.678 ± 0.0098
PGVRGVKPVGVS | 0.675 ± 0.092
PGVRPPSLVPPL | 0.65 ± 0.11
PHALSSFLSLFL | 0.791 ± 0.017
PHAPHPPHPAPC | 0.653 ± 0.01
PHARHPPDHRPF | 0.678 ± 0.059
PHLESVRYGLFS | 0.709 ± 0.02
PHLFDPLVPASF | 0.682 ± 0.048
PHLHTPDDARPL | 0.698 ± 0.092
PHLPYCSPSFPV | 0.642 ± 0.059
PHLTPRRQHRLR | 0.667 ± 0.049
PHPLLPGRSSPP | 0.677 ± 0.061
PHPLPHASPAPC | 0.6677 ± 0.0019
PHPLPPPTPSVP | 0.677 ± 0.018
PHPPHLRPLCPR | 0.719 ± 0.029
PHPPHRLPYPRL | 0.808 ± 0.054
PHPPPERSTNLC | 0.694 ± 0.036
PHPPPHPLFSRF | 0.758 ± 0.02

Sequence | protein stability index
PHPPPPSPPLPT | 0.709 ± 0.041
PHPPSDLLPYRP | 0.691 ± 0.022
PHPRPPLPLSLP | 0.697 ± 0.013
PHRACSSRPLGP | 0.718 ± 0.049
PHRPPPHHSLPP | 0.6976 ± 0.0013
PHRPTALALHWF | 0.66 ± 0.0067
PHTHHAPNTRNQ | 0.6797 ± 0.0036
PIALPLPPPTPS | 0.757 ± 0.08
PIERISNSGKRP | 0.6928 ± 0.0017
PIGVFFVSGCVG | 0.606 ± 0.014
PIPSPYYPPTFC | 0.73 ± 0.11
PISGFLRPPPPF | 0.663 ± 0.012
PISPLPPPRFLP | 0.677 ± 0.04
PKKNIKSKNIIL | 0.714 ± 0.034
PKSRSVTTSIPG | 0.691 ± 0.042
PKVDLSVVRSGY | 0.638 ± 0.016
PLAPLPMSPHLA | 0.572 ± 0.016
PLAPPLRPLVSP | 0.66 ± 0.076
PLASLPALHFSL | 0.678 ± 0.025
PLASPRIYAQHL | 0.697 ± 0.016
PLAWSAPCRPHT | 0.73 ± 0.029
PLCAFLFLSSPP | 0.757 ± 0.031
PLFPPPPLRSWP | 0.766 ± 0.089

Sequence | protein stability index
PLGCGLTRCVAT | 0.599 ± 0.0067
PLGQGRRRPPDA | 0.732 ± 0.1
PLHDGRFANDSF | 0.674 ± 0.043
PLHPPCLPPSRL | 0.814 ± 0.043
PLHPPSLPPPPT | 0.732 ± 0.032
PLHPSFPPPPAP | 0.5147 ± 0.0044
PLHRARAPHSYP | 0.7167 ± 0.006
PLKPPTPDPPHR | 0.666 ± 0.027
PLLLSPPPLYTF | 0.632 ± 0.028
PLLPATFLPATP | 0.74 ± 0.021
PLLPPLPATSHT | 0.786 ± 0.14
PLLPPLPPRPPP | 0.633 ± 0.03
PLLPPPPPPPPT | 0.718 ± 0.025
PLLPPSSVPTPS | 0.784 ± 0.1
PLLSPPSPLPPF | 0.724 ± 0.022
PLLSPPSPPPPT | 0.713 ± 0.017
PLPAAPPILFSL | 0.731 ± 0.038
PLPAPPPPTLPD | 0.715 ± 0.065
PLPARSPPPTSV | 0.652 ± 0.026
PLPFPLLPPPPH | 0.705 ± 0.013
PLPFPPPLPPPT | 0.681 ± 0.043
PLPFPSSPPPPP | 0.6723 ± 0.0018
PLPFPSTPPPPD | 0.691 ± 0.031

Sequence | protein stability index
PLPFRSSPLLVL | 0.614 ± 0.05
PLPGLLHCPTSP | 0.717 ± 0.12
PLPLAPHPDYSL | 0.687 ± 0.052
PLPLFGPRLSPP | 0.875 ± 0.065
PLPLHPSALPSL | 0.676 ± 0.05
PLPLPLLPPPLP | 0.764 ± 0.11
PLPLPPPSLSPL | 0.73279 ± 8.7e-05
PLPLPVSPRPPP | 0.6807 ± 0.0063
PLPLPYCQASPV | 0.658 ± 0.008
PLPLSPPLLPAP | 0.6 ± 0.0082
PLPPCCLPPSAF | 0.6857 ± 0.0061
PLPPCPPTPCPS | 0.648 ± 0.013
PLPPHVPPSLPP | 0.679 ± 0.0083
PLPPPDPPAPSL | 0.716 ± 0.0085
PLPPPGPLPSPP | 0.736 ± 0.043
PLPPPLPPTLPL | 0.72 ± 0.018
PLPPPPALLFPP | 0.733 ± 0.054
PLPPPPPALPLP | 0.683 ± 0.037
PLPPPPPDILTP | 0.743 ± 0.013
PLPPPPPTSLPP | 0.705 ± 0.043
PLPPRPHPLLSP | 0.6526 ± 0.0026
PLPPSPPPPPSP | 0.677 ± 0.019
PLPQNIPFPLPL | 0.735 ± 0.019

Sequence | protein stability index
PLPRLSYRPPTL | 0.663 ± 0.028
PLPRPLPPRVPF | 0.712 ± 0.013
PLPRPPSPLPAL | 0.689 ± 0.039
PLPSPPVPPPPP | 0.6796 ± 0.0043
PLPTGTQPTRHR | 0.669 ± 0.0079
PLPTHISPPLPS | 0.6893 ± 0.006
PLRLPPPRSPPL | 0.689 ± 0.032
PLRPRGAAPPHP | 0.6842 ± 0.0026
PLSAPNHVPGRT | 0.702 ± 0.045
PLSFPTFVPLPI | 0.663 ± 0.043
PLSFSPSLRYPP | 0.659 ± 0.023
PLSGFSSPSFFP | 0.693 ± 0.025
PLSPLPPPPPPP | 0.649 ± 0.04
PLSPPPPSPPFA | 0.743 ± 0.013
PLSPPPPSPPRP | 0.645 ± 0.025
PLSPRHVSPPLL | 0.778 ± 0.045
PLSRPFSPSLPL | 0.66 ± 0.028
PLSRYPSPSLPL | 0.693 ± 0.0076
PLVFSTSLCVSE | 0.666 ± 0.0093
PLVLPPSPASPF | 0.694 ± 0.042
PLVLSHRLPLPP | 0.703 ± 0.067
PLVPLAFWSPLV | 0.686 ± 0.035
PLVPPESPRSQV | 0.6564 ± 0.0034

Sequence | protein stability index
PLVSLLPHPRAA | 0.495 ± 0.094
PLWALVRDVRVG | 0.652 ± 0.033
PLYLSFSFCPSF | 0.611 ± 0.013
PMHVLTKLCDGV | 0.689 ± 0.083
PMLSLFRYNVVR | 0.697 ± 0.021
PMPGRSEREYQV | 0.711 ± 0.087
PNLARPSTPTTS | 0.72 ± 0.023
PNLKLSPKWAKP | 0.67 ± 0.063
PNLRPPSPPSLL | 0.714 ± 0.049
PNVPVPTPPPGI | 0.729 ± 0.061
PPAALPRSTPPP | 0.704 ± 0.063
PPAFLSPPLDPL | 0.6054 ± 0.0032
PPAPGPPHPPAL | 0.651 ± 0.013
PPAPPHPPPFPP | 0.589 ± 0.052
PPAPPLSSPPPS | 0.662 ± 0.053
PPAPPPPLPPPP | 0.64 ± 0.017
PPAPPPPPLPSY | 0.714 ± 0.052
PPAPRPSTRHTP | 0.74 ± 0.013
PPAPSPLPPPPF | 0.756 ± 0.03
PPAPSPRPPPPP | 0.708 ± 0.067
PPAPTAPPLSSH | 0.681 ± 0.03
PPARRPVPPLSC | 0.7187 ± 0.0058
